# Source: patent US20030130484A1, “Inhibitors and disassemblers of fibrillogenesis” (priority 2001, published 2003)
# Target: human Aβ1-40 peptide (human)
# Assay: cell-based or functional assay
# human Aβ1-40 peptide (human), sequence (peptide, as listed by the source): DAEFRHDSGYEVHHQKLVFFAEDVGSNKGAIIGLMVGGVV
Inhibition of Fibrilogenesis IC50 (µM),Inhibition of Fibrilogenesis ICmax (%),IC50 of inhibition of Aβ40 fibrillogenesis (inhibitor:Aβ ratio),Inhibition of Fibrillogenesis IC50 (thioflavin fluorescence) (inhibitor:Aβ40 molar ratio),Inhibition of Fibrillogenesis ICmax [%],percent inhibition of fibrillogenesis at concentrations at which Aβ16-22m inhibited completely [%],Substance
0.3,100,–,–,–,–,Anth-Aβ16-20 (peptide)
8.4,100,10,8.4,100,–,Ac-Aβ16-22 (Peptide VI)
1.1,23,–,1.1,23,10 to 20,Aβ16-22 (peptide)
